# B1: PlySs2: bacteriophage lysin derived from Streptococcus suis, amino acid sequence of FIG. 29 (SEQ ID NO: 1), N-terminal CHAP and C-terminal SH3 domain (protein, listed as Streptococcus suis)
# chain: MTTVNEALNNVRAQVGSGVSVGNGECYALASWYERMISPDATVGLGAGVGWVSGAIGDTISAKNIGSSYNWQANGWTVSTSGPFKAGQIVTLGATPGNPYGHVVIVEAVDGDRLTILEQNYGGKRYPVRNYYSAASYRQQVVHYITPPGTVAQSAPNLAGSRSYRETGTMTVTVDALNVRRAPNTSGEIVAVYKRGESFDYDTVIIDVNGYVWVSYIGGSGKRNYVATGATKDGKRFGNAWGTFK
# Tests used:
# [1] = system: Staphylococcus aureus (MRSA and MSSA strains); assay: Synergy time-kill assay (6 hours, combination compared to most active single agent); type: cell-based; settings: ½ MIC PlySs2 or ¼ MIC vancomycin alone, up to 6 hours
# [2] = system: Streptococcus pyogenes, Group A; assay: MIC, broth microdilution (CLSI M07-A9); type: cell-based; settings: 54 tested
# S. aureus = assay: Murine bacteremia model, survival; type: in vivo, BALB/c mice; settings: for 24 hour survival rate / 72 hour survival rate: high challenge (10^9 CFU MRSA MW2), dosing at 2 hours
# Streptococcus mutans = assay: MIC, broth microdilution (CLSI M07-A9); type: cell-based; settings: 12 tested
# S. aureus cocci = assay: Electron microscopy of bacteriolysis; type: cell-based; settings: after only 15 seconds of treatment
# Lactococcus spp. = assay: MIC, sensitivity of human gut bacteria; type: cell-based; settings: N 3
# MRSA strain 269 (MW2) = assay: Combination MIC study in the presence of 15% surfactant (Survanta); type: cell-based, Staphylococcus aureus; settings: PlySs2 plus daptomycin
# [3] = system: Staphylococcus epidermidis; assay: MIC, broth microdilution (CLSI M07-A9); type: cell-based; settings: 11 tested
# [4] = system: MRSA strain ATCC 700699 and MSSA strain ATCC 25923; assay: microbe, parasite or virus in culture; type: cell-based, Staphylococcus aureus
# Klebsiella spp. = assay: MIC, sensitivity of human gut bacteria; type: cell-based; settings: N 8
# Enterococcus faecium = assay: MIC, broth microdilution (CLSI M07-A9); type: cell-based; settings: 5 tested
# Lactobacillus spp. = assay: MIC, sensitivity of human gut bacteria; type: cell-based; settings: N 6
# MRSA = assay: Murine bacteremia model, MRSA CFUs in the blood; type: in vivo, mice; settings: 5.25 mg/kg PlySs2 at 2-hours post-infection
# [5] = system: Staphylococcus aureus (MRSA and MSSA strains); assay: Time kill assay, single agents at 1×MIC (CLSI); type: cell-based
# Staphylococcus aureus = assay: MIC, broth microdilution (CLSI M07-A9); type: cell-based; settings: for MIC90 / MIC90 [uM]: with reducing agent
# Acinetobacter baumannii = assay: MIC, broth microdilution (CLSI M07-A9); type: cell-based; settings: 8 tested
# [6] = system: Streptococcus agalactiae, Group B; assay: MIC, broth microdilution (CLSI M07-A9); type: cell-based; settings: 51 tested
# Proteus mirabilis = assay: MIC, sensitivity of human gut bacteria; type: cell-based; settings: N 2
# Bacillus cereus = assay: MIC, broth microdilution (CLSI M07-A9); type: cell-based; settings: 10 tested
# [7] = system: MRSA Staphylococcus aureus strain (MW2); assay: microbe, parasite or virus in culture; type: cell-based
# Escherichia coli = assay: MIC, broth microdilution (CLSI M07-A9); type: cell-based
# Streptococcus pneumoniae = assay: MIC, broth microdilution (CLSI M07-A9); type: cell-based; settings: 26 tested
# [8] = system: MRSA strain MW2 and MSSA strain ATCC 29213; assay: MIC in the presence of surfactant (Survanta), broth microdilution; type: cell-based, Staphylococcus aureus; settings: range from 1.25 to 15% surfactant
# [9] = system: Staphylococcus lugdiensis; assay: MIC, broth microdilution (CLSI M07-A9); type: cell-based; settings: 10 tested
# Pseudomonas aeruginosa = assay: MIC, broth microdilution (CLSI M07-A9); type: cell-based
# Enterococcus faecalis = assay: MIC, broth microdilution (CLSI M07-A9); type: cell-based; settings: 17 tested
# Listeria monocytogenes = assay: MIC, broth microdilution (CLSI M07-A9); type: cell-based; settings: 12 tested
# [10] = daptomycin 50 mg/kg once daily, PlySs2 5.25 mg/kg (FIG. 27B)
# [11] = vancomycin 110 mg/kg twice daily, PlySs2 5.25 mg/kg (FIG. 27E)
molecule,measurement,setting,value
B1,effectiveness alone at sub-MIC doses,[1],ineffective or poorly effective
same,MIC 50%,[2],2 µg/mL
same,MIC 90%,[2],8 µg/mL
same,MIC Range,[2],0.5 to 8 µg/mL
same,protection,S. aureus; 5 mg/kg dose,significant protection
same,dose giving survival enhancement over mock-injected control,"S. aureus; dose-response, as little as",0.25 mg/kg
same,24 hour survival rate,S. aureus; [10],56%
same,72 hour survival rate,S. aureus; [10],18%
same,24 hour survival rate,S. aureus; [11],60%
same,72 hour survival rate,S. aureus; [11],3%
same,survival at 72 hours,"S. aureus; low challenge model (up to 7×10^6 CFU MRSA MW2), single dose at 4 hours, PlySs2 1.25 mg/kg, daptomycin 2 mg/kg",13%
same,MIC 50%,Streptococcus mutans,64 µg/mL
same,MIC 90%,Streptococcus mutans,256 µg/mL
same,MIC Range,Streptococcus mutans,2 to 256 µg/mL
same,bacteriolysis by electron microscopy,S. aureus cocci,extensive bacteriolysis
same,CF-301 MIC,Lactococcus spp.,>512 µg/mL
same,effective concentration in combination as fraction of MIC,MRSA strain 269 (MW2),⅛
same,most dilute concentration in combination that still inhibits growth,MRSA strain 269 (MW2),2 µg/mL
same,MIC 50%,[3],128 µg/mL
same,MIC 90%,[3],512 µg/mL
same,MIC Range,[3],4 to 512 µg/mL
same,MIC in daptomycin resistant clones,[4]; over 21 days of in vitro growth,2 to 4 µg/mL
same,MIC before daptomycin resistance selection,[4]; start of serial passage,8 µg/mL
same,CF-301 MIC,Klebsiella spp.,>512 µg/mL
same,MIC 50%,Enterococcus faecium,>512 µg/mL
same,MIC 90%,Enterococcus faecium,>512 µg/mL
same,CF-301 MIC,Lactobacillus spp.,>512 µg/mL
same,decrease in CFUs in blood,MRSA; in 15 minutes,0.5 log10
same,decrease in CFUs in blood,MRSA; within 60 minutes of treatment,2 log
same,time to reach bactericidal levels (≥3-log10 reduction in CFUs),"[5]; 1×MIC, 20 MSSA and 42 MRSA strains",≤ 30 minutes
same,maximal kill (log reduction),"[5]; all MRSA and MSSA strains tested, generally within the first hour of incubation",≥ 3 log
same,MIC90,Staphylococcus aureus; DRSA (n = 8),4
same,MIC90 [uM],Staphylococcus aureus; DRSA (n = 8),0.15 µM
same,MIC 90%,Staphylococcus aureus; Daptomycin-resistant (8),4
same,MIC90,Staphylococcus aureus; LRSA (n = 5),2
same,MIC90 [uM],Staphylococcus aureus; LRSA (n = 5),0.08 µM
same,MIC 90%,Staphylococcus aureus; Linezolid-resistant (5),2
same,MIC90,Staphylococcus aureus; MRSA (n = 45),4
same,MIC90 [uM],Staphylococcus aureus; MRSA (n = 45),0.15 µM
same,MIC90,Staphylococcus aureus; MSSA (n-28),4
same,MIC90 [uM],Staphylococcus aureus; MSSA (n-28),0.15 µM
same,MIC 50%,Staphylococcus aureus; Methicillin resistant (120),4 µg/mL
same,MIC 90%,Staphylococcus aureus; Methicillin resistant (120),8 µg/mL
same,MIC Range,Staphylococcus aureus; Methicillin resistant (120),1 to 16 µg/mL
same,MIC 50%,Staphylococcus aureus; Methicillin susceptible (103),4 µg/mL
same,MIC 90%,Staphylococcus aureus; Methicillin susceptible (103),8 µg/mL
same,MIC Range,Staphylococcus aureus; Methicillin susceptible (103),1 to 16 µg/mL
same,MIC90,Staphylococcus aureus; VISA (n = 10),32
same,MIC90 [uM],Staphylococcus aureus; VISA (n = 10),1.2 µM
same,MIC90,Staphylococcus aureus; VRSA (n = 14),2
same,MIC90 [uM],Staphylococcus aureus; VRSA (n = 14),0.08 µM
same,MIC 90%,Staphylococcus aureus; Vancomycin-intermediate (31),32
same,MIC 90%,Staphylococcus aureus; Vancomycin-resistant (14),4
same,MIC,Staphylococcus aureus; all strains tested including 103 MSSA and 120 MRSA isolates,8 µg/mL
same,MIC,"Staphylococcus aureus; strain MW2, without DTT",32 µg/mL
same,MIC 50%,Acinetobacter baumannii,>512 µg/mL
same,MIC 90%,Acinetobacter baumannii,>512 µg/mL
same,MIC Range,Acinetobacter baumannii,>512 µg/mL
same,MIC 50%,[6],8 µg/mL
same,MIC 90%,[6],16 µg/mL
same,MIC Range,[6],1 to 64 µg/mL
same,CF-301 MIC,Proteus mirabilis,>512 µg/mL
same,MIC 50%,Bacillus cereus,>512 µg/mL
same,MIC 90%,Bacillus cereus,>512 µg/mL
same,MIC Range,Bacillus cereus,>512 µg/mL
same,suppression of daptomycin resistance relative to daptomycin alone,[7]; sub-MIC PlySs2 (4 ug/ml),8 to 16 fold
same,suppression of vancomycin resistance relative to vancomycin alone,[7]; sub-MIC PlySs2 (8 ug/ml),4 to 8 fold
same,MIC 50%,Escherichia coli; 6 tested,>512 µg/mL
same,MIC 90%,Escherichia coli; 6 tested,>512 µg/mL
same,MIC Range,Escherichia coli; 6 tested,>512 µg/mL
same,CF-301 MIC,"Escherichia coli; human gut bacteria, N 10",>512 µg/mL
same,MIC 50%,Streptococcus pneumoniae,16 µg/mL
same,MIC 90%,Streptococcus pneumoniae,64 µg/mL
same,MIC Range,Streptococcus pneumoniae,1 to 64 µg/mL
same,inhibition of MIC by surfactant,[8],8 fold
same,MIC 50%,[9],8 µg/mL
same,MIC 90%,[9],8 µg/mL
same,MIC Range,[9],8 µg/mL
same,MIC 50%,Pseudomonas aeruginosa; 5 tested,>512 µg/mL
same,MIC 90%,Pseudomonas aeruginosa; 5 tested,>512 µg/mL
same,MIC Range,Pseudomonas aeruginosa; 5 tested,>512 µg/mL
same,CF-301 MIC,"Pseudomonas aeruginosa; human gut bacteria, N 11",>512 µg/mL
same,MIC 50%,Enterococcus faecalis,>512 µg/mL
same,MIC 90%,Enterococcus faecalis,>512 µg/mL
same,MIC 50%,Listeria monocytogenes,128 µg/mL
same,MIC 90%,Listeria monocytogenes,512 µg/mL
same,MIC Range,Listeria monocytogenes,1 to 512 µg/mL

# Source: US20210008175A1, “BACTERIOPHAGE LYSIN AND ANTIBIOTIC COMBINATIONS AGAINST GRAM POSITIVE BACTERIA” (priority 2012, published 2021)
